The target of assay [1] is T1, CNOT1 SHD (residues 1833–2361), MBP tag removed (human, UniProt A5YKK6 1833-2361).
T1 construct: source: E. coli BL21 (DE3) Star, purified (amylose resin, HiTrapQ, HRV3C digestion, size exclusion chromatography); not shown: MBP, N-terminal, cleaved
The assay is described as follows: crystal structure; CNOT1 SHD with synthetic Nanos1 NIM peptide; vapor diffusion at 22°C, 0.7-0.8 M succinic acid pH 7.0; refined at 2.8 Å. To be noted: both partners purified.

In another assay the target is T2, MBP-CNOT1 SHD (human, UniProt A5YKK6 1833-2361).
T2 construct: also called isolated CNOT1 SHD; NOT1 superfamily homology domain; source: E. coli BL21 (DE3) Star, purified (amylose resin, HiTrapQ, Superdex 200); not shown: MBP, N-terminal, kept
The assay is described as follows: pull-down; GST pull-down in vitro with recombinant proteins expressed in E. coli; GST-NIM as bait. Particulars: both partners purified.

T2 sequence (A5YKK6 1833-2361): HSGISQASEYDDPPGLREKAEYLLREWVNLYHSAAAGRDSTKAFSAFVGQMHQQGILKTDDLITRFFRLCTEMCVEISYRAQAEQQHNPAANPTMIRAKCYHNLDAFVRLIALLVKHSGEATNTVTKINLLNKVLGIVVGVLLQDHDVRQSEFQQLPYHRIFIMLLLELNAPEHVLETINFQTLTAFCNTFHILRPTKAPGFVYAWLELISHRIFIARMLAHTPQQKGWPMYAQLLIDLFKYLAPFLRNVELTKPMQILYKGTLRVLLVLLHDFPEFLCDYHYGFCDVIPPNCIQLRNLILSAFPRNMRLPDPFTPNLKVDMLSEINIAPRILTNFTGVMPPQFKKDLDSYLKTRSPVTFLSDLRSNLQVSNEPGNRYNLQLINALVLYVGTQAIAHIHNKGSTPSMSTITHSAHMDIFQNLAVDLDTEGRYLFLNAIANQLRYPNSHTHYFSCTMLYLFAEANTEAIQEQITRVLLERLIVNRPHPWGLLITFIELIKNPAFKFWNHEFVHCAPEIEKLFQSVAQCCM
T1 sequence (A5YKK6 1833-2361): as above

B1: Nanos1 NIM peptide (residues 40–56) (peptide, UniProt Q8WY41 40-56, looked up)
peptide: FSSWNDYLGLATLITKA
notes: Nanos1, H. sapiens, NIM, residues 40–56; also called NIM peptide of Nanos1; Nanos1 peptide; source: synthetic peptide (EMC Microcollections)
Consider B1, for which the binding result in assay [1] was “binds”.

B2: GST-Nanos3 NIM (domain or fragment, human, UniProt P60323 4-20, looked up)
chain: FDLWTDYLGLAHLVRAL
notes: Nanos3, human, NIM, residues 4-20; also called conserved motif of Nanos3 fused to glutathione S-transferase; GST-tagged Nanos3 NIM; source: E. coli BL21 (DE3) Star, purified (described in the Supplemental Material)
Turning to B2, the binding result in the assay with MBP-CNOT1 SHD is “binds”.

B3: GST-Nanos1 NIM (domain or fragment, human, UniProt Q8WY41 40-56, looked up)
chain: FSSWNDYLGLATLITKA
notes: Nanos1, human, NIM, residues 40-56; also called conserved motif of Nanos1 fused to glutathione S-transferase; GST-tagged Nanos1 NIM; source: E. coli BL21 (DE3) Star, purified (described in the Supplemental Material)
Turning to B3, the binding result with MBP-CNOT1 SHD is “binds”.

B4: GST-Nanos2 NIM (domain or fragment, human, UniProt P60321 6-22, looked up)
chain: FDMWKDYFNLSQVVWAL
notes: Nanos2, human, NIM, residues 6-22; also called conserved motif of Nanos2 fused to glutathione S-transferase; GST-tagged Nanos2 NIM; source: E. coli BL21 (DE3) Star, purified (described in the Supplemental Material)
With B4, the binding result in the assay with MBP-CNOT1 SHD is “binds”.

The values are drawn from PMC4003280, “Structural basis for the Nanos-mediated recruitment of the CCR4–NOT complex and translational repression” (Genes & Development, 2014).
